Reference: patent US9051572

Experiments:
[1] = target: Purified recombinant ubiquitin containing an amino terminal FLAG sequence (UniProt P0CG48)
[2] = target: in vitro translated [35S] TAp73α (UniProt O15350)
[3] = target: in vitro translated [35S] TAp73δ (UniProt O15350)
[4] = target: in vitro translated [35S] p53 (UniProt P04637)

Row | Substance | ELISA for self-ubiquitination of Itch, OD450 signal [1] | in vitro ubiquitination (higher molecular weight [35S] species on SDS-PAGE) [2] | in vitro ubiquitination (higher molecular weight [35S] species on SDS-PAGE) [3] | in vitro ubiquitination (higher molecular weight [35S] species on SDS-PAGE) [4]
1 | GST-Itch, from Thr 277 to Glu 903 (lacking the N-terminal C2 domain) | an assay OD450 signal of 1.972 was obtained | protein was ubiquitinated, as shown by the appearance of discrete higher molecular weight | The inability of Itch to ubiquitinate p738 and p53 | The inability of Itch to ubiquitinate p738 and p53
2 | GST-Itch MUT (C830A), Thr 277 to Glu 903 | a background signal of 0.093 was obtained | this mutant, that retains the ability to bind TAp73 ... lost the ability to promote TAp73 ... ubiquitination | – | –
